Measured values from article PMC6908506, “Development of Foot-and-Mouth Disease Virus-Neutralizing Monoclonal Antibodies Derived From Plasmablasts of Infected Cattle and Their Germline Gene Usage” (Frontiers in Immunology, 2019).
Where a chain is given by its changes, count along the chain named.

B1: E54 (antibody)
VH: QVHLRESGPSLVKPSQTLSLTCTASGFSLSDRAVGWVRQAPGKALEWLGSIDTGGTTGYNPGLKSRLRITKDNSKSQVSLSVSTVTTDDSATYYCGAVYQTTETKTTCPEGYSNTGDCDDDCCCWGSDCSRYARWKRYRGGWFSSDYIVTEVYEFHVDAWGQGLLVSVSS
VL: QAVLTQPSSVSGSLGQRVSITCSGSSSNVGNGYVSWYQLIPGSTPRTLIYGDTSPASGVPDRFSGSRSGNTATLTIISFQAEDEADYFCASAEDSSSNVVFGSGTTLTVL
B2: F28 (antibody, V domains shown)
VH: QVQLRESGPSLVKPSQTLSLTCTVSGFSLNTYSVYWVRQVPGKALECIGGISSREARGYNPALKPRLSITKDNSKSQVSLSLSSVTTDDTATYYCAKAARGYAFTCGGISSHSDHYVDAWGQGLLVTVSS
VL: QAVLTQPSSVSGSLGQRVSISCSGSSSNVGTGNHVSWFQQIPGSAPRTLIYGATRRLSGVPDRFSGSRSGNTATLTISSLQAEDEADYFCASWQSDSTTVFGSGTTLTVL
B3: F103 (antibody)
VH: QVQLRESGPSLVKPSQTLSLTCTASGFSLSDKAVGWVRQAPGKALEWLGSIDTGGNSGYNPGLKSRLSITKDNSKSQASLSVSSVITGDSATYYCAIVHQETVRKTSGSDAYTCPDGCVLSPACSRERRCLCGTWPRDYCVDHIQSSTYNFYVEAWGQGLLVTVSS
VL: QAVLTQPSSVSESLGQRVSITCSGISSSVGNGYVSWYQLIPGSAPRTLIYGDTSRASGVPDRFSGSRSGNTATLTISSLQAEDEADYFCASADGSSSNAIFGSGTTLTVL
B4: F128 (antibody, V domains shown)
VH: QVQLRESGPSLVKPSQTLSLTCTVSGFSLGTYTVTWVRQAPGKALEWVGEISGGGDTDYNPALKSRLSITKHNSKSQVSLSVSSVTPEDTATYYCARCYSTCGCGLSCTSEDSYYVNAWGQGLLVTVSS
VL: QAVLTQPSSVSGSLGQRVSITCSGSSSNIGSYNVGWYQQVPGSGLTTIIYGTNNRPSGVPDRFSGSKSGNTATLTISSLRAEDEADYFCVTYDSTSSTIFGTGTTLTVL
B5: F136 (antibody, V domains shown)
VH: QVQLRESGPSLVKPSQTLSLTCTVSGFSLSSKGVHWIRQAPGKALEWLGSTWSFGSAFNPALKSRLSITKDNSKSQVALSLSTVTPEDTATYYCARELYNGGSTWDAINGYNEERYYFDAWGQGLLVTVSS
VL: QAVLTQPSSVSGSLGQSVSITCSGSSSNVGYGNYVSWFQQIPGSAPRMLIYGATSRASGVPYRFSGSRSGNTATLTINSLQAEDEADYFCASPDSSSSGYFAVFGSGTTLTVL
B6: 62 (antibody, V domains shown)
VH: QVQLRESGPSLVKPSQTLSLTCTVSGFSLSDKDVGWVRQAPGTALEWLAVIYNAGSTSYNPTLESRLSITKDNSKSQVSLSLSSVTTEDTATYYCALGNYWAWGQGLLVTVSS
VL: QAALTQPSSVSGSLGQRVSITCSGSSSNIGRGNYVNWFQQIPGSAPRTLIYGATNRASGVPDRFSGSRSGDTATLTISPLQAEDEADYFCAAYDINGNAVFGSGTTLTVL
B7: A7 (antibody, V domains shown)
VH: QVQLRESGPSLVKPSQTLSLTCTVSGFSLSSYAVNWVRQAPGKALECLGGISSSGSTGYKPALKSRLSITKDNSKSQVSLSVSNVTPEDTATYYCVKSYWDYNDYGCCSGGNGVGFDAWGQGLLVTVSS
VL: QAVLTQPSSVSGSLGQRVSITCSGSSNNIGSYAVGWYQQVPGSGLRTIIYSSSSRPSGVPDRFSGSKSGNTATLTISSLQAEDEADYFCATADYSRSTAVFGSGTILTVL
B8: B51 (antibody, V domains shown)
VH: QVQLRESGPSLVKPSQTLSLTCTVSGFSLSSYGVIWVRQAPGKALECLGQITTGGITGYNPALKSRLSITKDNSEGQVSLSLSSVTTEDTATYYCVKEHDNYGDFSGGCLHAAYVDTWGQGLLVTVSS
VL: QAVLTQPSSVSGSLGQRVSITCSGSSSNIGLYAVGWYQQVPGSGLRSIIYSSRSRPSGVPDRFSGSKSGNTATLTISSLQAEDEADYFCVAYDSSSDSAIFGSGTTLTVL
B9: B54 (antibody, V domains shown)
VH: QVQLRESGPSLVKPSQTLSLTCTVSGFSLSSNAVVRVRQAPGKTLEWLGGICSGGATSFNPALKSRLSITKDNSKSQVSLSVSSVTPEDTATYYCMRVGSCFGCGDRCGYGYPYTYVDVWGQGLLVTVSP
VL: B2 VL with S21T, H34Y, R55S, L57A, W93Y, S95I, D96G, S97N, T99A
B10: B81 (antibody, V domains shown)
VH: QVQLRESGPSLVKPSQTLSLTCTVSGFSLSNYAIGWVRQAPGKAPEWVVDTDVDGGTAYNPALKSRLSITKDNSKSQVSLSLNGVTPEDTATYYCVKLSRESAWLFFHVDAWGQGLLITISS
VL: QAVLTQPSSVSGSLGQSVSITCSGSSGNIGRYGVDWYQQVPGSGLRTIIYASSRRPSGVPDRFSGSKSGNTATLTISSLQAEDEADYFCAGGDENIIVPLFGAGTTLTVL
notes: also called HRP-B81
B11: E28 (antibody, V domains shown)
VH: QVQLRESGPSLVKPSQTLSLTCTISGFSLSDYAVAWVRQAPGKAPEWVGGISTGGRTNYNPTLESRLSITKDNAKSQISLTVSSVTPEDTATYLCLRLACYDHEGYRCFGYDLNWGVDAWGQGLLVSVSS
VL: QAVLTQPSSVSGSLGQRVSITCSGSSTNIGTYYVGWYQQVPGSGLRTIIYGTTNRPSGVPDRFSGSKSSGNTATLTISSLQAEDEADYFCVTYDSTITPSAVFGSGTTLTVL
B12: E32 (antibody, V domains shown)
VH: QVQLRESGPSLVKPSQTLSLTCTVSGFSLSNYALNWVRQAPGKALECLGGIGPSGHTDYNPALKSRLIITKDNSKNQVSLSVSSVTPEDTATYICARDSGIYGTSGWGCIGGFDDNYIDAWGHGLLVTVSS
VL: QAVLTQPSSVSGSLGQRVSITCSGSSNNIGAHGVGWYQQIPGSGLRTIIYNNSKRPSGVPDRFSGSKSGNTATLTISSLQAGDEADYFCATSDYSTRSSAFGSGTTLTVL
B13: E53 (antibody, V domains shown)
VH: QVQLRESGPSLVKPSQTLSLTCTVSGFSLSSYAVDWVRQAPGKALECLGGISRDGDISYNPALKSRLSITKDDSKSQVSLSLSSVTSEDTATYYCAKATDGGYFRSTYGCQGFTVNTYVDIWGQGFLVTVSS
VL: QAVLTQPSSLSGSLGQRVSITCSGSSGNIGTRDVSWYQQIPGSGLRTIIYGNSSRPSGVPDRFSGSRSGNTATLRIRSLQPEDEADYFCGSADYSSEIAVFGSGTTLTVL
B14: 60 (antibody, V domains shown)
VH: QVQLRESGPSLVKPSQTLSLTCTISGFSLSDATVGWVRQASGKALEWLGAIWPSGSTGYNLGLKSRLTITKDNSKTQVFLSLNSLTPEDTATYHCTGGGIGFIWGQGLLVTVSP
VL: QAVLTQPSSVSGSLGQRVSITCSGSPNNVGLGNFVSWFQQIPGSAPRSLIYGATSRVSGVPDRFSGSRSMNTATLTISSLQAEDEADYFCASYERNNTGVFGSGTTLTVL
B15: B59 (antibody, V domains shown)
VH: QVQLRESGPSLVKPSQTLSLTCTVSGFSLSDYAVGWVRQAPGKALEWVGGISSGGTTCSKPALKSRLSITRDSSKSQVSLFVTSMTPEDTATYYCAKYFRHDYDVGCSYIMEAVDAWGQGLLVTVSS
VL: QAVLTQPSSVSGSLGQRVSITCSGSSSNVGRGNYVNWFQQIPGSAPRTLIYGATSRASGVPNRFSGSRSGNTATLTISSLQAEDEADYFCAVWDDNIRNAVFGSGTTLILL
B16: B64 (antibody, V domains shown)
VH: QVQLRESGPSLVKPSQTLSLTCTVSGFSLSNYDVAWVRQPPGKALECLGGVSISGRTDYNPALKSRLSITKDNSKNQVSLSLSSVTTEDTATYYCAKFFGDYGYDYYGCGYGAGDHYVDAWGQGLLVAVSS
VL: B3 VL with E12G, I25S, S28N, D93E, I100G, T108I
B17: E9 (antibody, V domains shown)
VH: QVQLRESGPSLVKPSQTLSLTCTVSGFSLSNYAVSWVRQAPGKALECLGSISSDGNTGYNPALKSRLSITKDNSKSQVSLSVSSATPEDTATYYCTKCHYPGGCCGYWNDDHVDAWGQGLLVTVSS
VL: B7 VL with S19T, N27S, S31M, A33D, S51G, S77M, A90T, R96S, A99V, I106T
B18: E10 (antibody, V domains shown)
VH: QVQLRESGPSLVKPSQTLSLTCTVSGFSLSSNGVVWVRQAPGKALEWVGCSRGEGSTFYNQALRSRLSITKDNSKSQVSLSVSSVTPEDTATYYCTKVYNGGCGRRGYDAAAYVDAWGQGLLVTVSS
VL: B7 VL with S25R, S31G, Y32N, A33G, S51G, R96S, S97G, I106T
B19: E11 (antibody, V domains shown)
VH: QVQLRESGPSLVKPSQTLSLTCTVSGFSLNSYAVTWVRQAPGKALECLGSIGSRGGTGYNQALKSRLSITKNNSKSQVSLSVRSVTPEDTATYYCVKESGSGYWDDACWGFGVGDDYVDTWGHGLLVTVST
VL: QAVLTQPSSVSGSLGQRVSITCSGSSSNVGRGNYVSWFQQLPGAAPRTLIYAATSRASGVPDRFSGSRSGNTATLTISSLQAEEEAYYFCAVYDTSSKAAVFGSGTTLTVL
B20: E12 (antibody, V domains shown)
VH: QVQLRESGPSLVKPSQTLPLTCTVSGFSLSDYGVGWVRQAPGKALEWLGVIYYAGRTVYNPALKSRLSITKDNSKSQISLSLSSVITEDTATYYCTRCYEDYYYDCIDWGHRYDLWGQGLLVTVSS
VL: QAVLTQPSSVSGSLGQRVSITCSGSSSNVGTGNYVTWFQQIPGSAPRILIYGASSRVSGVPDRFSGSRSGNTATLTISSLQAEDEADYFCTSYESDYTAVFGSGTTLTVL

What follows are binders tested against T1, FMDV O/Mya/98 146S antigen (Foot-and-mouth disease virus serotype …, UniProt G8JKC2, strain) (assay: cell-based or functional assay). Details: not given.
For B1, the “virus neutralizing test on BHK-21 cells, IC50” value (“virus neutralizing test” below) was 3.65 µg/mL.
For B2, the “virus neutralizing test” value was 3.33 µg/mL.
In the case of B3, the “virus neutralizing test” value is reported as 6.22 µg/mL.
For B4, the “virus neutralizing test” value was 0.98 µg/mL.
With B5 the “virus neutralizing test” value was 1.67 µg/mL.

These binders were tested against T1, FMDV O/Mya/98 146S antigen (assay: ELISA). Details: both partners purified.
B6: binds.
B7: binds.
B8: binds.
B9: binds.
B10: binds.
B11: binds.
B12: binds.
B13: binds.
B14: binds.
B15: binds.
B16: binds.
B17: binds.
B18: binds.
B19: binds.
B20: binds.
